Entries after “also recorded” stand apart in the source; their conditions may differ. One block for each molecule: values may come before it.
How the values were obtained:
[1] = system: BMP signaling (p-SMAD1/5/9 versus p-SMAD2/3); conditions: sb4; cited from earlier work
Text: Considering that GREM1 is a canonical antagonist of BMP and that BMPRs exert their function through phosphorylation of SMAD1/5/9 (p-SMAD1/5/9), we sought to determine whether GREM1 regulates EMT via BMPR superfamily pathways. […] This definitive exclusion of BMPR–SMAD1/5/9 involvement establish ...

[2] = system: HCT116 and SW480 cells; experiment: EMT markers by immunoblotting and RT–qPCR; type: cell-based, human; conditions: GREM1-CM + GREM1 BAb, + SB505124 (1 µM) or + different concentrations of sb4 (sb4: immunoblotting)
Procedure: (§1) To investigate the effect of secreted GREM1 on CRC cells, an in vitro GREM1 secretion system was established using HEK293 cells. Stably GREM1-expressing cells (pcDNA3.1-GREM1) and empty-vector transfected cells (pcDNA3.1) were cultured in DMEM/F12 medium with 10% FBS until 40% confluence. After complete removal of the normal culture medium, HEK293-GREM1 and HEK293-Vec cells were continuously cultured in DMEM/F12 medium without FBS for 5 days before medium collection. GREM1 or Vector conditioned medium (GREM1-CM/Vec-CM) was then centrifuged at 1000 rpm for 30 min and the supernatant was collected for further study.
(§2) Protein was extracted from the cells with RIPA buffer (Beyotime, P0018) or NP40 lysis buffer (Beyotime, P0013F) and separated by SDS-PAGE, and transferred to polyvinylidene difluoride membranes. […] Band intensity was quantified using Fiji (ImageJ) by grayscale analysis.
(§3) Total RNA was extracted using Trizol reagent (Invitrogen, 15596026). […] The SYBR Green Premix Pro Taq HS qPCR Kit (Accurate Biology, AG11701) was then used to quantify mRNA expression according to the manufacturer’s instructions. All results were calculated using the 2^−ΔΔCt method. […]

[3] = system: TGFβR1; experiment: Co-immunoprecipitation of GREM1 and TGFβR1; type: binding, human; conditions: HCT116 cells, HA-tagged GREM1, anti-HA
Procedure: (§4) HCT116 cells were transfected with the indicated plasmids and lysed in NP40 lysis buffer (Beyotime, P0013F) supplemented with protease inhibitor cocktail (Thermo, 78446). Lysates were incubated with the indicated Anti-Flag nanobody magarose beads (Ktsm-life, KTSM1338), Anti-HA nanobody magarose beads (Ktsm-life, KTSM1335) or Anti-GFP nanobody magarose beads (Ktsm-life, KTSM1334) overnight at 4 °C. The protein complex was washed four times with the NP40 lysis buffer, eluted with 1×loading buffer (Beyotime, P0015) by boiling for 5 min, followed by mass spectrometry and immunoblotting with the indicated antibodies.
as §2

[4] = system: ACVR1C-ECD; experiment: MST binding of ACVR1C-ECD-Fc to GREM1-His or ACTIVIN B-His; design: species or system human
Text: (§5) Expi293F cells were transfected with a pcDNA3.4-ACVR1C-ECD-Fc and pcDNA3.4-ACVR1C-ECD-Fc-double mutant (E85A/T101A) expression vector to produce the target protein, which was subsequently purified using a Protein G column. Briefly, the coding sequence (CDS) of the human ACVR1C extracellular domain (ACVR1C-ECD, NM_145259.3, residues 1–113) fused to an Fc tag was cloned into the pcDNA3.4 vector. Expi293F cells were transfected with this construct, the supernatant was harvested 5 days post transfection.
(§6) MST was carried out on a Monolith NT.115 instrument (NanoTemper Technologies GmbH, MO-L011). To evaluate ACVR1C-ECD or ACVR1C peptide or ACVR1C-ECD-double mutant (E85A/T101A) binding to GREM1-His or ACTIVIN B-His, an increasing concentration of purified ACVR1C-ECD-Fc protein (0–27.5 µM) or ACVR1C peptide (0–2.3 µM) or ACVR1C-ECD-double mutant (0–27.5 µM) was incubated with 50 nM red-fluorescently labeled (NanoTemper Technologies GmbH, MO-L011) GREM1-His protein (R&D, 5190-GR) or ACTIVIN B-His protein (SinoBiological, 10814-H08H). Experiments were carried out in a PBS buffer pH 7.4 using premium capillaries (NanoTemper Technologies GmbH, MO-K025).

[5] = system: ACVR1C; experiment: Co-immunoprecipitation of GREM1 and ACVR1C; type: binding, human; conditions: HCT116 cells, HA-tagged GREM1, anti-HA
Procedure: as §4
(§7) Protein was extracted from the cells with RIPA buffer (Beyotime, P0018) or NP40 lysis buffer (Beyotime, P0013F) and separated by SDS-PAGE, and transferred to polyvinylidene difluoride membranes. Primary antibodies against GREM1 (1:1,000, SinoBiological, 50016-R117), ACVR1C (1:1,000, Thermo, PA587475), Flag-tag (1:1,000, CST, 14793), HA-tag (1:1,000, CST, 3724), E-Cadherin (1:1,000, CST, 3195), β-Catenin (1:1,000, CST, 8480), ZEB1 (1:1,000, CST, 3396), Snail (1:1,000, CST, 3879), SMAD2/3 (1:1,000, CST, 8685), p-SMAD2/3 (1:1,000, CST, 8828), SMAD1 (1:1,000, CST, 6944), p-SMAD1/5/9 (1:1,000, CST, 13820), TGFβ (1:1,000, CST, 3709), TGFβR1 (0.3 µg/mL, R&D, AF3025), β-actin (1:5,000, Beyotime, AF0003) and GAPDH (1:5,000, Beyotime, AF0006) were used in this study. Peroxidase-conjugated secondary antibody (1:10,000, Cell Signaling Technology, 7074, 7076) was used and signal was visualized using an enhanced chemiluminescence assay (ECL, Thermo), according to the manufacturer’s protocol. Band intensity was quantified using Fiji (ImageJ) by grayscale analysis.

[6] = system: HCT116 cells; experiment: Subcutaneous transplantation of GREM1-CM-pretreated HCT116 cells in nude mice; type: in vivo, human cells in nude mice; conditions: subcutaneous model, HCT116 cells pretreated with GREM1-CM (Figures S8A–C)
Procedure: For cecum-to-liver metastasis model, 1 × 10^6 MC38-luc cells were resuspended in 50 µL of PBS and injected into the cecum of GD mice or control mice (Grem1-CreER^T2/Rosa-LSL-DTA mice) (n = 6 mice in each group); 5 × 10^6 HCT116-luc cells transduced with lentivirus carrying a pLV or pLV-GREM1 were injected into the cecum of NOG mice (n = 5 mice in each group). SB505124 was administered via intraperitoneal injection at a dose of 10 mg/kg once every other day. The metastases were examined every 5 days post injection using an IVIS Lumina Imaging System. Mice were euthanized between 2 and 6 weeks after injection. […] Mice were euthanized 4 weeks after injection. The tumor tissues were collected for further evaluation.
Figure S8. SB505124 inhibits GREM1-CM-induced EMT and metastasis of CRC in vivo. […] D, RT–qPCR analysis of epithelial marker CDH1 and mesenchymal markers CTNNB1, SNAI1, ZEB1 in subcutaneous tumor tissues from the indicated treatment groups. n = 3 independent experiments. E-G, Representative IF images (E) and quantification (F, G) of E-CAD (green), SNAIL (red), and DAPI (blue) staining in tumors from the indicated groups. […] H, I, Representative IVIS images (H) and quantification (I) of NOG mice that were injected with HCT116-luc cells in the cecum wall and treated with either SB505124 or vehicle via abdominal injection. Liver metastases were imaged and quantified using the IVIS Lumina Imaging System (n = 5 mice per group). For B–D, F, G and I, data are presented as mean ± s.e.m. P values were calculated using one-way ANOVA with Bonferroni multiple-comparison test (B–D, F, and G) or two-tailed Student’s t-test (I).

[7] = system: ACVR1C–SMAD2/3 pathway in HCT116 and SW480 cells; experiment: Immunoblotting p-SMAD2/3 (ACVR1C pathway); type: cell-based, human; conditions: SW480 and HCT116 cells, increasing concentrations of rhGREM1
Procedure: as §1, §2

[8] = system: SW480 and HCT116 cells; experiment: Endogenous GREM1 expression by RT–qPCR and immunoblotting; type: cell-based, human; conditions: increasing concentrations of rhGREM1, RT–qPCR (n = 3) and immunoblotting
Text: as §7, §3

[9] = system: CRC cells (SW480, HCT116, and MC38); experiment: GREM1 withdrawal assay, RT–qPCR and immunoblot; type: cell-based, human (SW480, mouse (MC38); conditions: rhGREM1 or rmGrem1 200 ng/mL 24 h, then GREM1-free medium 2 and 4 days
Procedure: To determine whether tumor cells that have acquired signaling autonomy can sustain GREM1 expression in the absence of external stimulation, we performed a GREM1 withdrawal assay. CRC cells (SW480, HCT116, and MC38) were first pulsed with rhGREM1 or recombinant mouse GREM1 (rmGrem1) for 24 h to initiate the signaling response. The medium containing rhGREM1 or rmGrem1 was then thoroughly removed, replaced with fresh GREM1-free medium, and the cells were cultured for an additional 4 days. […] This persistent, self-sustaining expression supports our conclusion that the initial rhGREM1 or rmGrem1 stimulation triggers a positive feedback loop of GREM1 transcription within CRC cells.
as §2, §3

[10] = system: BMPR–SMAD1/5/9 pathway in HCT116 or SW480 cells; experiment: Immunoblotting p-SMAD1/5/9 (BMPR pathway); type: cell-based, human; conditions: rhGREM1 gradient
Text: as §7

[11] = system: TGFβ or TGFβR1 in CRC cells; experiment: Immunoblotting TGFβ and TGFβR1 expression; type: cell-based, human; conditions: CRC cells (HCT116, SW480), rhGREM1 gradient
Text: as §7

[12] = molecular target: T1, GREM1 (Homo sapiens, UniProt O60565); experiment: MST binding of ACVR1C-ECD double mutant (E85A/T101A) to GREM1-His; conditions: double mutant 0–27.5 µM vs 50 nM red-labeled GREM1-His, PBS pH 7.4
T1 construct: His; purchased R&D 5190-GR
T1 sequence (O60565 25-184): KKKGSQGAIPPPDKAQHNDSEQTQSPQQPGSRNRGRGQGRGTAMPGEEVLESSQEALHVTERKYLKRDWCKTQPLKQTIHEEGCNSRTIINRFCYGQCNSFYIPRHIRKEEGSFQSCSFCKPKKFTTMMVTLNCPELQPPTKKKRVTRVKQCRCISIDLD
Text: as §5, §6

Molecule: Brc1ccc(CSc2nc3ccccc3o2)cc1 [sb4]
- p-SMAD1/5/9 selectivity [1]: exclusively increases p-SMAD1/5/9 without affecting p-SMAD2/3
- GREM1-CM-induced EMT, effect of treatment [2]: failed to reverse GREM1-induced EMT

B2: rhGREM1: recombinant human GREM1 (protein)
chain: T1 sequence (O60565 25-184)
modifications: red fluorescent label (NanoTemper, MO-L011) in the MST assays; left off: His, end not stated, kept
notes: recombinant human GREM1
- p-SMAD2/3, concentration gradient [7]: dose-dependent increase in p-SMAD2/3
- endogenous GREM1 expression [8]: dose-dependent upregulation of tumor GREM1 expression
- endogenous GREM1 expression after withdrawal [9]: not only maintained but in some cases further increased even after the withdrawal of exogenous GREM1; also recorded: maintained elevated endogenous GREM1 expression even after withdrawal of exogenous GREM1
- p-SMAD1/5/9 [10]: suppressed the p-SMAD1/5/9
- TGFβ or TGFβR1 expression [11]: No changes were observed across all doses tested

Second part, led by results:

- affinity for ACVR1C relative to ACTIVIN B, in words [4]: superior affinity
- fold higher affinity for ACVR1C-ECD than ACTIVIN B ([4]; GREM1 Kd versus ACTIVIN B Kd): 12.6 fold
- Kd ([4]; Monolith NT.115, ACVR1C-ECD-Fc 0–27.5 µM vs 50 nM red-fluorescently labeled His-protein, PBS pH 7.4, premium capillaries, n = 3 independent experiments, mean ± s.e.m.): 67.7 ± 10.3 nM
B1: GREM1: GREM1-His protein (R&D, 5190-GR) in MST; HA-tagged GREM1 in co-IP (protein)
chain: T1 sequence (O60565 25-184)
modifications: left off: HA, end not stated, kept | mCherry, end not stated, kept
notes: GREM1-His protein (R&D, 5190-GR) in MST; HA-tagged GREM1 in co-IP
- co-IP interaction with TGFβR1 [3]: no such interaction was detected; also recorded: no direct interaction
- co-IP interaction with ACVR1C [5]: co-immunoprecipitates with ACVR1C; also recorded: interacted with ACVR1C specifically
- effect on subcutaneous tumor proliferation [6]: pro-proliferative effect

- binding of ACVR1C-ECD double mutant to GREM1 [12]: no detectable interaction
B3: ACVR1C-ECD double mutant (E85A/T101A): human ACVR1C extracellular domain fused to an Fc tag, double mutant E85A/T101A (protein)
chain: ELSPGLKCVCLLCDSSNFTCQTEGACWASVMLTNGKEQVIKSCVSLPELNAQVFCHSSNNVTKTACCFTDFCNNITLHLPAASPNAPKLGPME
modifications: left off: Fc, end not stated, kept

Source: publication PMC13371181, “A paracrine-to-autocrine shunt of GREM1 fuels colorectal cancer metastasis via ACVR1C” (Molecular Cancer, 2026)
